Drawing on PMC10949841 (2024), this text covers Kd for 7 molecules.

First the molecules themselves.
B1: hLF mut3 (K28A) (natural protein)
chain: GRRRSVQWCAVSQPEATKCFQWQRNMRAVRGPPVSCIKRDSPIQCIQAIAENRADAVTLDGGFIYEAGLAPYKLRPVAAEVYGTERQPRTHYYAVAVVKKGGSFQLNELQGLKSCHTGLRRTAGWNVPIGTLRPFLNWTGPPEPIEAAVARFFSASCVPGADKGQFPNLCRLCAGTGENKCAFSSQEPYFSYSGAFKCLRDGAGDVAFIRESTVFEDLSDEAERDEYELLCPDNTRKPVDKFKDCHLARVPSHAVVARSVNGKEDAIWNLLRQAQEKFGKDKSPKFQLFGSPSGQKDLLFKDSAIGFSRVPPRIDSGLYLGSGYFTAIQNLRKSEEEVAARRARVVWCAVGEQELRKCNQWSGLSEGSVTCSSASTTEDCIALVLKGEADAMSLDGGYVYTAGKCGLVPVLAENYKSQQSSDPDPNCVDRPVEGYLAVAVVRRSDTSLTWNSVKGKKSCHTAVDRTAGWNIPMGLLFNQTGSCKFDEYFSQSCAPGSDPRSNLCALCIGDEQGENKCVPNSNERYYGYTGAFRCLAENAGDVAFVKDVTVLQNTDGNNNEAWAKDLKLADFALLCLDGKRKPVTEARSCHLAMAPNHAVVSRMDKVERLKQVLLHQQAKFGRNGSDCPDKFCLFQSETKNLLFNDNTECLARLHGKTTYEKYLGPQYVAGITNLKKCSTSPLLEACEFLRK
B2: human lactoferrin (hLF), wild type (natural protein)
chain: GRRRSVQWCAVSQPEATKCFQWQRNMRKVRGPPVSCIKRDSPIQCIQAIAENRADAVTLDGGFIYEAGLAPYKLRPVAAEVYGTERQPRTHYYAVAVVKKGGSFQLNELQGLKSCHTGLRRTAGWNVPIGTLRPFLNWTGPPEPIEAAVARFFSASCVPGADKGQFPNLCRLCAGTGENKCAFSSQEPYFSYSGAFKCLRDGAGDVAFIRESTVFEDLSDEAERDEYELLCPDNTRKPVDKFKDCHLARVPSHAVVARSVNGKEDAIWNLLRQAQEKFGKDKSPKFQLFGSPSGQKDLLFKDSAIGFSRVPPRIDSGLYLGSGYFTAIQNLRKSEEEVAARRARVVWCAVGEQELRKCNQWSGLSEGSVTCSSASTTEDCIALVLKGEADAMSLDGGYVYTAGKCGLVPVLAENYKSQQSSDPDPNCVDRPVEGYLAVAVVRRSDTSLTWNSVKGKKSCHTAVDRTAGWNIPMGLLFNQTGSCKFDEYFSQSCAPGSDPRSNLCALCIGDEQGENKCVPNSNERYYGYTGAFRCLAENAGDVAFVKDVTVLQNTDGNNNEAWAKDLKLADFALLCLDGKRKPVTEARSCHLAMAPNHAVVSRMDKVERLKQVLLHQQAKFGRNGSDCPDKFCLFQSETKNLLFNDNTECLARLHGKTTYEKYLGPQYVAGITNLKKCSTSPLLEACEFLRK
B3: hLF mut1 (R24S) (natural protein)
chain: GRRRSVQWCAVSQPEATKCFQWQSNMRKVRGPPVSCIKRDSPIQCIQAIAENRADAVTLDGGFIYEAGLAPYKLRPVAAEVYGTERQPRTHYYAVAVVKKGGSFQLNELQGLKSCHTGLRRTAGWNVPIGTLRPFLNWTGPPEPIEAAVARFFSASCVPGADKGQFPNLCRLCAGTGENKCAFSSQEPYFSYSGAFKCLRDGAGDVAFIRESTVFEDLSDEAERDEYELLCPDNTRKPVDKFKDCHLARVPSHAVVARSVNGKEDAIWNLLRQAQEKFGKDKSPKFQLFGSPSGQKDLLFKDSAIGFSRVPPRIDSGLYLGSGYFTAIQNLRKSEEEVAARRARVVWCAVGEQELRKCNQWSGLSEGSVTCSSASTTEDCIALVLKGEADAMSLDGGYVYTAGKCGLVPVLAENYKSQQSSDPDPNCVDRPVEGYLAVAVVRRSDTSLTWNSVKGKKSCHTAVDRTAGWNIPMGLLFNQTGSCKFDEYFSQSCAPGSDPRSNLCALCIGDEQGENKCVPNSNERYYGYTGAFRCLAENAGDVAFVKDVTVLQNTDGNNNEAWAKDLKLADFALLCLDGKRKPVTEARSCHLAMAPNHAVVSRMDKVERLKQVLLHQQAKFGRNGSDCPDKFCLFQSETKNLLFNDNTECLARLHGKTTYEKYLGPQYVAGITNLKKCSTSPLLEACEFLRK
B4: hLF mut5 (R24S/R27A/K28A/R30A) (natural protein)
chain: GRRRSVQWCAVSQPEATKCFQWQSNMAAVAGPPVSCIKRDSPIQCIQAIAENRADAVTLDGGFIYEAGLAPYKLRPVAAEVYGTERQPRTHYYAVAVVKKGGSFQLNELQGLKSCHTGLRRTAGWNVPIGTLRPFLNWTGPPEPIEAAVARFFSASCVPGADKGQFPNLCRLCAGTGENKCAFSSQEPYFSYSGAFKCLRDGAGDVAFIRESTVFEDLSDEAERDEYELLCPDNTRKPVDKFKDCHLARVPSHAVVARSVNGKEDAIWNLLRQAQEKFGKDKSPKFQLFGSPSGQKDLLFKDSAIGFSRVPPRIDSGLYLGSGYFTAIQNLRKSEEEVAARRARVVWCAVGEQELRKCNQWSGLSEGSVTCSSASTTEDCIALVLKGEADAMSLDGGYVYTAGKCGLVPVLAENYKSQQSSDPDPNCVDRPVEGYLAVAVVRRSDTSLTWNSVKGKKSCHTAVDRTAGWNIPMGLLFNQTGSCKFDEYFSQSCAPGSDPRSNLCALCIGDEQGENKCVPNSNERYYGYTGAFRCLAENAGDVAFVKDVTVLQNTDGNNNEAWAKDLKLADFALLCLDGKRKPVTEARSCHLAMAPNHAVVSRMDKVERLKQVLLHQQAKFGRNGSDCPDKFCLFQSETKNLLFNDNTECLARLHGKTTYEKYLGPQYVAGITNLKKCSTSPLLEACEFLRK
B5: hLF mut4 (R30A) (natural protein)
chain: GRRRSVQWCAVSQPEATKCFQWQRNMRKVAGPPVSCIKRDSPIQCIQAIAENRADAVTLDGGFIYEAGLAPYKLRPVAAEVYGTERQPRTHYYAVAVVKKGGSFQLNELQGLKSCHTGLRRTAGWNVPIGTLRPFLNWTGPPEPIEAAVARFFSASCVPGADKGQFPNLCRLCAGTGENKCAFSSQEPYFSYSGAFKCLRDGAGDVAFIRESTVFEDLSDEAERDEYELLCPDNTRKPVDKFKDCHLARVPSHAVVARSVNGKEDAIWNLLRQAQEKFGKDKSPKFQLFGSPSGQKDLLFKDSAIGFSRVPPRIDSGLYLGSGYFTAIQNLRKSEEEVAARRARVVWCAVGEQELRKCNQWSGLSEGSVTCSSASTTEDCIALVLKGEADAMSLDGGYVYTAGKCGLVPVLAENYKSQQSSDPDPNCVDRPVEGYLAVAVVRRSDTSLTWNSVKGKKSCHTAVDRTAGWNIPMGLLFNQTGSCKFDEYFSQSCAPGSDPRSNLCALCIGDEQGENKCVPNSNERYYGYTGAFRCLAENAGDVAFVKDVTVLQNTDGNNNEAWAKDLKLADFALLCLDGKRKPVTEARSCHLAMAPNHAVVSRMDKVERLKQVLLHQQAKFGRNGSDCPDKFCLFQSETKNLLFNDNTECLARLHGKTTYEKYLGPQYVAGITNLKKCSTSPLLEACEFLRK
B6: hLF mut7 (N673A/S678A) (natural protein)
chain: GRRRSVQWCAVSQPEATKCFQWQRNMRKVRGPPVSCIKRDSPIQCIQAIAENRADAVTLDGGFIYEAGLAPYKLRPVAAEVYGTERQPRTHYYAVAVVKKGGSFQLNELQGLKSCHTGLRRTAGWNVPIGTLRPFLNWTGPPEPIEAAVARFFSASCVPGADKGQFPNLCRLCAGTGENKCAFSSQEPYFSYSGAFKCLRDGAGDVAFIRESTVFEDLSDEAERDEYELLCPDNTRKPVDKFKDCHLARVPSHAVVARSVNGKEDAIWNLLRQAQEKFGKDKSPKFQLFGSPSGQKDLLFKDSAIGFSRVPPRIDSGLYLGSGYFTAIQNLRKSEEEVAARRARVVWCAVGEQELRKCNQWSGLSEGSVTCSSASTTEDCIALVLKGEADAMSLDGGYVYTAGKCGLVPVLAENYKSQQSSDPDPNCVDRPVEGYLAVAVVRRSDTSLTWNSVKGKKSCHTAVDRTAGWNIPMGLLFNQTGSCKFDEYFSQSCAPGSDPRSNLCALCIGDEQGENKCVPNSNERYYGYTGAFRCLAENAGDVAFVKDVTVLQNTDGNNNEAWAKDLKLADFALLCLDGKRKPVTEARSCHLAMAPNHAVVSRMDKVERLKQVLLHQQAKFGRNGSDCPDKFCLFQSETKNLLFNDNTECLARLHGKTTYEKYLGPQYVAGITALKKCATSPLLEACEFLRK
B7: hLF mut8 (E687A/K691A) (natural protein)
chain: GRRRSVQWCAVSQPEATKCFQWQRNMRKVRGPPVSCIKRDSPIQCIQAIAENRADAVTLDGGFIYEAGLAPYKLRPVAAEVYGTERQPRTHYYAVAVVKKGGSFQLNELQGLKSCHTGLRRTAGWNVPIGTLRPFLNWTGPPEPIEAAVARFFSASCVPGADKGQFPNLCRLCAGTGENKCAFSSQEPYFSYSGAFKCLRDGAGDVAFIRESTVFEDLSDEAERDEYELLCPDNTRKPVDKFKDCHLARVPSHAVVARSVNGKEDAIWNLLRQAQEKFGKDKSPKFQLFGSPSGQKDLLFKDSAIGFSRVPPRIDSGLYLGSGYFTAIQNLRKSEEEVAARRARVVWCAVGEQELRKCNQWSGLSEGSVTCSSASTTEDCIALVLKGEADAMSLDGGYVYTAGKCGLVPVLAENYKSQQSSDPDPNCVDRPVEGYLAVAVVRRSDTSLTWNSVKGKKSCHTAVDRTAGWNIPMGLLFNQTGSCKFDEYFSQSCAPGSDPRSNLCALCIGDEQGENKCVPNSNERYYGYTGAFRCLAENAGDVAFVKDVTVLQNTDGNNNEAWAKDLKLADFALLCLDGKRKPVTEARSCHLAMAPNHAVVSRMDKVERLKQVLLHQQAKFGRNGSDCPDKFCLFQSETKNLLFNDNTECLARLHGKTTYEKYLGPQYVAGITNLKKCSTSPLLEACAFLRA

This assay addresses T1, HAdV-C5 hexon labeled with AlexaFluor594 (human adenovirus C5 (HAdV-C5), UniProt P04133 1-952, AlexaFluor594 label (sites not given)).
T1 chain: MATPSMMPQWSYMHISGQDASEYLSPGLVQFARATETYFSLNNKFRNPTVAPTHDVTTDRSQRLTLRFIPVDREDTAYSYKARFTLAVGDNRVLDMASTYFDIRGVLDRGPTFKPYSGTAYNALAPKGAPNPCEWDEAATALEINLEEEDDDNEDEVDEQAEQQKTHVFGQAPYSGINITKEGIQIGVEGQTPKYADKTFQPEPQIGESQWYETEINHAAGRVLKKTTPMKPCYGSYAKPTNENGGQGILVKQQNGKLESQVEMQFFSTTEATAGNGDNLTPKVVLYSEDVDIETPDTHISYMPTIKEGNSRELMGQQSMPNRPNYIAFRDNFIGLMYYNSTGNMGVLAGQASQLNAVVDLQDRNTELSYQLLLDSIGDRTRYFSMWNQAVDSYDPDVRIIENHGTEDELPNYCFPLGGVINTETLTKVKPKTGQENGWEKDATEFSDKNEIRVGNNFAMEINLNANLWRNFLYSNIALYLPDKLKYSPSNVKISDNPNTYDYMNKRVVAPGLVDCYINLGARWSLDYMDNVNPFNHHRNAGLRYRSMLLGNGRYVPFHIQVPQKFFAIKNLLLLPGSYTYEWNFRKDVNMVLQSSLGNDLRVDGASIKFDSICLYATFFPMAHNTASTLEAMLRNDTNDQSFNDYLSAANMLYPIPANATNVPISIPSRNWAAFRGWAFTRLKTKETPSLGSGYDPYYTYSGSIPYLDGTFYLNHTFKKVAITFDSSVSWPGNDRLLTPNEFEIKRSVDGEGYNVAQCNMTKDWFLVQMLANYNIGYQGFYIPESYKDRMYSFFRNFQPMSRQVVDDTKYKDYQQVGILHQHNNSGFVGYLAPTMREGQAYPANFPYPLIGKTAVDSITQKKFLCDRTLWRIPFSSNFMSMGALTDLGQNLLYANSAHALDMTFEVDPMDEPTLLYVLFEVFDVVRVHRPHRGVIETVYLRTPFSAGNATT
Description: MST.
For orientation: Kd means the constant that tells how readily two partners part at equilibrium. Low readings indicate tighter binding, high ones weaker binding. B1 registered a Kd of 125 nM.
As for B2, binding was put at a Kd of 117 nM.
Consider B3, for which the dissociation constant Kd is 247 nM.
B4 displayed a Kd of 602 nM.
B5: the Kd is 207 nM.
With B6, the Kd worked out at 207 nM.
B7 displayed a Kd of 370 nM.
